Test results reported in publication PMC2927781 (2010).
Where no end group is shown, it is not given here. Me2 = dimethyl

Legend:
[1] = biological target: T1, PHD_(Pygo2)–HD1_(BCL9) complex (human, UniProt Q9BRQ0 327-387; O00512 177-205); experiment: ITC
T1 chain: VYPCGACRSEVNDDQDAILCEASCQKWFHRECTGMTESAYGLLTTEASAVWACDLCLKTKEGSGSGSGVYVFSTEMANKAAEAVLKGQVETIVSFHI

[2] = biological target: T2, PHD_(Pygo1)–HD1_(BCL9) complex (6×His-tagged, PHD linked to HD1) (human, UniProt Q9Y3Y4 340-400; O00512 177-205); experiment: ITC
T2 chain: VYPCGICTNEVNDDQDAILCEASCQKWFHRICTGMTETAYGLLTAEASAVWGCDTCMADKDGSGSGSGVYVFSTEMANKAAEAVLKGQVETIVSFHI

B1: 15-mer H3K4me2 histone tail peptide (histone H3 tail dimethylated at lysine 4) (peptide)
chain: ARTK(Me2)QTARKSTGGKA
B1 was tested, and the Kd [1] was 2020 nM and the Kd [2] was 3320 nM.
